Data: the supplement of paper PMC7877785
± gives the uncertainty stated by the source.

Assay: self-splicing fitness, log relative to wild type (ln ratio); higher = more splicing; Tetrahymena group I intron in knt gene, E. coli kanamycin selection, DiMSum; sequences stand for … in CUCUCU…GGAGGGAAAAGUUAUCAGGCAUGCACCUGGUAGCUAGUCUUUAAACCAAUAGAUUGCAUCGGUUUAAAAGGCAAGACCGUCAAAUUGCGGGAAAGGGGUCAACAGCCGUUCAGUACCAAGUCUCAGGGGAAACUUUGAGAUGGCCUUGCAAAGGGUAUGGUAAUAAGCUGACGGACAUGGUCCUAACCACGCAGCCAAGUCCUAAGUCAACAGAUCUUCUGUUGAUAUGGAUGCAGUUCACAGACUAAAUGUCGGUCGGGGAAGAUGUAUUCUUCUCAUAAGAUAUAGUCGGACCUCUCCUUAAUGGGAGCUAGCGGAUGAAGUGAUGCAACACUGGAGCCGCUGGGAACUAAUUUGUAUGCGAAAGUAUAUUGAUUAGUUUUGGAGUACUCGUGGUCG
Procedure, shortened: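 Pooled colonies went to amplicon sequencing on an Illumina HiSeq 2500 after six replicate transformations. The plates were LB agar with 100 μg/mL carbenicillin, 50 μM IPTG and 0.2% rhamnose, with or without 25 μg/mL kanamycin, incubated overnight at 37°C or 30°C. The E. coli BL21(DE3) library had all eight P1ex-region intron nucleotides randomised, the intron placed in the knt kanamycin-resistance gene on pET-22b(+). DiMSum fitness is the error-weighted combination of replicate fold changes, kanamycin against none, normalised to wild type.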

| Sequence | self-splicing fitness (ln) (30 °C) | self-splicing fitness (ln) (37 °C) |
| --- | --- | --- |
| AAUAAGCAAUAUUACGCAGC | -3.5 ± 0.26 | -2.1 ± 0.23 |
| UGUAAGCAAUAUUACGUGUC | -3.77 ± 0.2 | -2.01 ± 0.17 |
| UGACAGCAAUAUUACGUACC | -1.78 ± 0.12 | -0.302 ± 0.14 |
| ACCUAGCAAUAUUACGGGAU | -2.07 ± 0.1 | -0.904 ± 0.1 |
| GCCGAGCAAUAUUACGAUGG | -2.48 ± 0.26 | -2.96 ± 0.31 |
| GCAAAGCAAUAUUACGCACU | -0.557 ± 0.078 | 0.031 ± 0.092 |
| AGCCAGCAAUAUUACGUAUA | -3.4 ± 0.14 | -2.69 ± 0.17 |
| GUGGAGCAAUAUUACGGUAG | -1.7 ± 0.16 | -1.41 ± 0.31 |
| CGUUAGCAAUAUUACGCCCU | -1.26 ± 0.2 | -0.204 ± 0.19 |
| CGGAAGCAAUAUUACGAGCA | -2.83 ± 0.24 | -1.82 ± 0.18 |
| CAGAAGCAAUAUUACGAGAC | -1.15 ± 0.3 | -1.38 ± 0.28 |
| CAAGAGCAAUAUUACGUAGG | -1.4 ± 0.069 | -1.06 ± 0.1 |
| GGUCAGCAAUAUUACGGAGG | – | -2.54 ± 0.36 |
| UCCAAGCAAUAUUACGGGCC | -4.08 ± 0.32 | -1.72 ± 0.25 |
| ACCGAGCAAUAUUACGGUGA | -3.07 ± 0.18 | -1.48 ± 0.13 |
| GGCUAGCAAUAUUACGUCAA | -1.34 ± 0.11 | -0.747 ± 0.12 |
| CGGCAGCAAUAUUACGUUCU | -0.518 ± 0.08 | -0.416 ± 0.11 |
| UAGCAGCAAUAUUACGGGAU | -4.22 ± 0.39 | -2.7 ± 0.26 |
| AAGAAGCAAUAUUACGCUAA | -1.69 ± 0.14 | -0.682 ± 0.15 |
| CGGCAGCAAUAUUACGCGCA | -0.939 ± 0.097 | -0.247 ± 0.1 |
| CGGGAGCAAUAUUACGGAUU | -3.51 ± 0.33 | -1.27 ± 0.28 |
| UCCAAGCAAUAUUACGGCCA | -0.223 ± 0.11 | 0.127 ± 0.11 |
| GCCAAGCAAUAUUACGAAAG | -3.63 ± 0.21 | -0.702 ± 0.2 |
| GCAUAGCAAUAUUACGCUCC | -1.61 ± 0.17 | -1.94 ± 0.31 |
| GUCCAGCAAUAUUACGAACC | -1.97 ± 0.093 | -0.224 ± 0.11 |

| Sequence | self-splicing fitness (ln) (30 °C) | self-splicing fitness (ln) (37 °C) |
| --- | --- | --- |
| UCGCAGCAAUAUUACGAUUG | -3.66 ± 0.18 | -1.9 ± 0.16 |
| AAUAAGCAAUAUUACGCCAG | -1.88 ± 0.18 | -0.98 ± 0.25 |
| ACGCAGCAAUAUUACGGUGU | -3.81 ± 0.14 | -2.29 ± 0.096 |
| CUUAAGCAAUAUUACGGUAG | -1.58 ± 0.12 | -0.559 ± 0.12 |
| GCGUAGCAAUAUUACGUUUG | -3.14 ± 0.21 | -1.37 ± 0.15 |
| ACAGAGCAAUAUUACGGAUG | -4.02 ± 0.31 | -3.37 ± 0.37 |
| UGUCAGCAAUAUUACGGCAC | -2.42 ± 0.35 | – |
| UAUAAGCAAUAUUACGACCG | -0.137 ± 0.12 | -0.1 ± 0.16 |
| GUUCAGCAAUAUUACGGUCU | -0.136 ± 0.047 | 0.327 ± 0.063 |
| GGCUAGCAAUAUUACGGUAA | -0.655 ± 0.15 | -0.0661 ± 0.14 |
| GGUGAGCAAUAUUACGCGCU | -1.7 ± 0.42 | – |
| CAGUAGCAAUAUUACGCUUA | -0.683 ± 0.21 | -0.832 ± 0.19 |
| ACACAGCAAUAUUACGCUUC | – | -3.08 ± 0.23 |
| AGGCAGCAAUAUUACGCUGU | -3.99 ± 0.16 | -3.28 ± 0.2 |
| GUUCAGCAAUAUUACGGGUA | -2.23 ± 0.12 | -0.474 ± 0.097 |
| UGUAAGCAAUAUUACGUGUG | -1.04 ± 0.085 | -0.237 ± 0.095 |
| CCUGAGCAAUAUUACGUACC | -0.796 ± 0.25 | -2.27 ± 0.37 |
| CAGCAGCAAUAUUACGCCCC | -1.87 ± 0.48 | -0.533 ± 0.43 |
| UUUGAGCAAUAUUACGAUUG | -3.75 ± 0.47 | -2.41 ± 0.31 |
| GCCAAGCAAUAUUACGCACA | -1.07 ± 0.14 | -0.724 ± 0.15 |
| UGCUAGCAAUAUUACGAACU | -1.12 ± 0.15 | -0.251 ± 0.15 |
| GCAAAGCAAUAUUACGUCAG | -3.89 ± 0.29 | -1.56 ± 0.16 |
| CGGUAGCAAUAUUACGGCAC | -2.11 ± 0.26 | -1.99 ± 0.36 |
| AGGUAGCAAUAUUACGUGAA | -2.213 ± 0.016 | -1.34 ± 0.034 |
| UGUCAGCAAUAUUACGGGCA | -2.75 ± 0.21 | -1.78 ± 0.27 |

| Sequence | self-splicing fitness (ln) (30 °C) | self-splicing fitness (ln) (37 °C) |
| --- | --- | --- |
| GUGUAGCAAUAUUACGUAUU | -1.25 ± 0.12 | -2.82 ± 0.22 |
| GCGUAGCAAUAUUACGCAUC | -3.37 ± 0.5 | -1 ± 0.4 |
| CAGUAGCAAUAUUACGGCUA | -1.11 ± 0.15 | -1.21 ± 0.16 |
| CACGAGCAAUAUUACGUUGA | -3.06 ± 0.17 | -2.47 ± 0.18 |
| GUUUAGCAAUAUUACGAGUG | -3.74 ± 0.17 | -0.634 ± 0.11 |
| AUACAGCAAUAUUACGCCGC | -3.8 ± 0.27 | -2.19 ± 0.2 |
| CGGAAGCAAUAUUACGUCAG | -1.33 ± 0.13 | -0.154 ± 0.17 |
| CCCUAGCAAUAUUACGGUGG | -4.27 ± 0.29 | -1.93 ± 0.16 |
| UUACAGCAAUAUUACGACGA | -0.196 ± 0.077 | 0.136 ± 0.12 |
| UACUAGCAAUAUUACGUACC | -2.24 ± 0.17 | -1.72 ± 0.23 |
| UAGAAGCAAUAUUACGACAU | -1.569 ± 0.014 | -0.76 ± 0.033 |
| AGUGAGCAAUAUUACGGUAU | -3.9 ± 0.23 | -2.31 ± 0.24 |
| CUGGAGCAAUAUUACGUGCG | -1.44 ± 0.092 | -1.19 ± 0.12 |
| GAGGAGCAAUAUUACGCAGG | -1.91 ± 0.35 | -2.08 ± 0.36 |
| UGCUAGCAAUAUUACGCGCA | -1.97 ± 0.23 | -0.803 ± 0.2 |
| AGUUAGCAAUAUUACGCCCU | -0.19 ± 0.12 | -0.312 ± 0.15 |
| UGGUAGCAAUAUUACGACGA | -0.462 ± 0.14 | 1.24 ± 0.19 |
| UUAUAGCAAUAUUACGCAGA | -2.06 ± 0.14 | -1.25 ± 0.099 |
| GAUAAGCAAUAUUACGCUGC | -2.88 ± 0.23 | -3.04 ± 0.3 |
| CUCUAGCAAUAUUACGACAU | -3.866 ± 0.033 | -3.6 ± 0.044 |
| AUUUAGCAAUAUUACGCCAG | -2.27 ± 0.27 | – |
| UCUGAGCAAUAUUACGAAGC | – | -1.48 ± 0.37 |
| CCCUAGCAAUAUUACGUUUU | -3.59 ± 0.15 | -2.2 ± 0.14 |
| GUCGAGCAAUAUUACGGCUU | – | -0.65 ± 0.49 |
| AGCCAGCAAUAUUACGAUCG | -3.74 ± 0.26 | -1.69 ± 0.15 |

| Sequence | self-splicing fitness (ln) (30 °C) | self-splicing fitness (ln) (37 °C) |
| --- | --- | --- |
| CUUAAGCAAUAUUACGCUGU | -4.48 ± 0.34 | -2.3 ± 0.23 |
| GCUGAGCAAUAUUACGUAUC | -2.37 ± 0.13 | 0.164 ± 0.1 |
| UCCUAGCAAUAUUACGUAUU | -4.31 ± 0.2 | -2.48 ± 0.22 |
| UGUUAGCAAUAUUACGGUAG | -0.65 ± 0.22 | -0.35 ± 0.19 |
| CUUCAGCAAUAUUACGCUGA | -2.41 ± 0.17 | -2.56 ± 0.29 |
| UUAAAGCAAUAUUACGUUAC | -3.66 ± 0.19 | -0.9 ± 0.2 |
| ACUUAGCAAUAUUACGAAUC | -3.59 ± 0.23 | -0.386 ± 0.23 |
| CUAUAGCAAUAUUACGCUUA | -2.47 ± 0.24 | -2.34 ± 0.3 |
| ACAAAGCAAUAUUACGCGGU | -3.37 ± 0.13 | -2.68 ± 0.14 |
| CAAAAGCAAUAUUACGGAUG | -2.76 ± 0.11 | -1.4 ± 0.14 |
| CGACAGCAAUAUUACGGUAA | -1.81 ± 0.13 | -1.44 ± 0.11 |
| CACGAGCAAUAUUACGCGCA | -3.24 ± 0.18 | -2.52 ± 0.14 |
| UUUAAGCAAUAUUACGAAUU | -1.6 ± 0.17 | -1.58 ± 0.2 |
| GCCAAGCAAUAUUACGCAAA | -1.13 ± 0.11 | -0.448 ± 0.12 |
| CAUGAGCAAUAUUACGCGUU | -4.13 ± 0.42 | -2.35 ± 0.26 |
| UGUUAGCAAUAUUACGUGGU | -4.24 ± 0.19 | -2.76 ± 0.14 |
| AUUAAGCAAUAUUACGUACU | 0.0206 ± 0.094 | 0.125 ± 0.12 |
| ACGCAGCAAUAUUACGAAUG | -2.51 ± 0.086 | -1.2 ± 0.097 |
| UACGAGCAAUAUUACGUCCA | -2.8 ± 0.27 | -1.69 ± 0.27 |
| GAGGAGCAAUAUUACGUUGU | – | -1.87 ± 0.33 |
| GACUAGCAAUAUUACGACGC | 0.125 ± 0.1 | 0.0388 ± 0.14 |
| CUAUAGCAAUAUUACGGAAU | -3.5 ± 0.4 | – |
| UUGAAGCAAUAUUACGGGCA | 0.114 ± 0.11 | 0.502 ± 0.13 |
